The target in data set [1] is S366 peptide (STING peptide substrate with serine 366).
In data set [2] the target is A366 peptide (STING peptide substrate with alanine at 366).

B1: ULK2 (protein)
chain: MEVVGDFEYSKRDLVGHGAFAVVFRGRHRQKTDWEVAIKSINKKNLSKSQILLGKEIKILKELQHENIVALYDVQELPNSVFLVMEYCNGGDLADYLQAKGTLSEDTIRVFLHQIAAAMRILHSKGIIHRDLKPQNILLSYANRRKSSVSGIRIKIADFGFARYLHSNMMAATLCGSPMYMAPEVIMSQHYDAKADLWSIGTVIYQCLVGKPPFQANSPQDLRMFYEKNRSLMPSIPRETSPYLANLLLGLLQRNQKDRMDFEAFFSHPFLEQGPVKKSCPVPVPMYSGSVSGSSCGSSPSCRFASPPSLPDMQHIQEENLSSPPLGPPNYLQVSKDSASTSSKNSSCDTDDFVLVPHNISSDHSCDMPVGTAGRRASNEFLVCGGQCQPTVSPHSETAPIPVPTQIRNYQRIEQNLTSTASSGTNVHGSPRSAVVRRSNTSPMGFLRPGSCSPVPADTAQTVGRRLSTGSSRPYSPSPLVGTIPEQFSQCCCGHPQGHDSRSRNSSGSPVPQAQSPQSLLSGARLQSAPTLTDIYQNKQKLRKQHSDPVCPSHTGAGYSYSPQPSRPGSLGTSPTKHLGSSPRSSDWFFKTPLPTIIGSPTKTTAPFKIPKTQASSNLLALVTRHGPAEE
For the protein B1, in data set [1], the Activity (cpm) worked out at 156000 cpm and the Fold induction is 21.1 fold. This protein also had an Activity (cpm) in data set [2] of 7380 cpm.

B2: GRK7 (protein)
chain: MVDMGALDNLIANTAYLQARKPSDCDSKELQRRRRSLALPGLQGCAELRQKLSLNFHSLCEQQPIGRRLFRDFLATVPTFRKAATFLEDVQNWELAEEGPTKDSALQGLVATCASAPAPGNPQPFLSQAVATKCQAATTEEERVAAVTLAKAEAMAFLQEQPFKDFVTSAFYDKFLQWKLFEMQPVSDKYFTEFRVLGKGGFGEVCAVQVKNTGKMYACKKLDKKRLKKKGGEKMALLEKEILEKVSSPFIVSLAYAFESKTHLCLVMSLMNGGDLKFHIYNVGTRGLDMSRVIFYSAQIACGMLHLHELGIVYRDMKPENVLLDDLGNCRLSDLGLAVEMKGGKPITQRAGTNGYMAPEILMEKVSYSYPVDWFAMGCSIYEMVAGRTPFKDYKEKVSKEDLKQRTLQDEVKFQHDNFTEEAKDICRLFLAKKPEQRLGSREKSDDPRKHHFFKTINFPRLEAGLIEPPFVPDPSVVYAKDIAEIDDFSEVRGVEFDDKDKQFFKNFATGAVPIAWQEEIIETGLFEELNDPNRPTGCEEGNSSKSGVCLLL
In data set [1], B2 came in with an Activity (cpm) of 13100 cpm and a Fold induction of 1.81 fold. The protein also registered an Activity (cpm) in data set [2] of 7260 cpm.

Values taken from patent US20130039933.
